Measured values taken from paper PMC13589956, “Engineered flavonoid disrupts mitochondrial AIF/CHCHD4 complex for targeted cancer therapy” (Acta Pharmaceutica Sinica. B, 2026).

Biological target: T1, HIS-AIF_(103-613) (human, UniProt O95831 103-613)
T1 construct: apoptosis-inducing factor (AIF, encoded by AIFM1), human, residues 103-613; also called apoptosis-inducing factor; source: E. coli BL21+DE3(RIPL), 0.5 mmol/L IPTG 3 h at 37 °C, purified
Test: AlphaScreen or HTRF; His-AIF_(103-613) (5 μL at 300 nmol/L) and GST-CHCHD4 (5 μL at 100 nmol/L, 2 h) coupled by their tags to donor and acceptor beads (5 μg/mL, 3 h at 23 °C in the dark); 384-well plates, 25 μL, 0.1% BSA/PBS; N27 at 3 μmol/L as positive control of inhibition
Conditions: both partners purified

T1 sequence (O95831 103-613): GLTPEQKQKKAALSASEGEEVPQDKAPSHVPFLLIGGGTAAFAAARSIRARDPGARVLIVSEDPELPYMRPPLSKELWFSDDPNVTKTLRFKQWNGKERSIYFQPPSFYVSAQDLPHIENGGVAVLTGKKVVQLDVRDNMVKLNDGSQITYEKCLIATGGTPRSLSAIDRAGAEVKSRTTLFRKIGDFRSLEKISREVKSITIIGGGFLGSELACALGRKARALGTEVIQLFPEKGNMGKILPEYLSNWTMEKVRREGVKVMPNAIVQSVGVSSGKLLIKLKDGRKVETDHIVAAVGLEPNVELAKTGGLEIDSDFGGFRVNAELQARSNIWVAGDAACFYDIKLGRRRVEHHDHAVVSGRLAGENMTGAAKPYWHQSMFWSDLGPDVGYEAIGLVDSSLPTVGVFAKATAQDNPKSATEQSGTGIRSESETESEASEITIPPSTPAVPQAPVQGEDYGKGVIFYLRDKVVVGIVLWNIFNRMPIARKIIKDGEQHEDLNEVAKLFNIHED

Binder	binding result
MSYCRQEGKDRIIFVTKEDHETPSSAE (peptide, UniProt Q8N4Q1 1-27, looked up, synthetic peptide corresponding to the N-terminal 27 amino acids of CHCHD4; source: synthetic peptide) [peptide N27]	binds
GST-CHCHD4 (natural protein, human, UniProt Q8N4Q1 1-142, looked up, coiled-coil-helix-coiled-coil-helix domain-containing protein 4 (CHCHD4), human; it is printed both as GST-CHCHD4 and as CHCHD4-Gst; also called CHCHD4-Gst; coiled-coil-helix-coiled-coil-helix domain-containing protein 4; source: E. coli BL21+DE3(RIPL), 0.5 mmol/L IPTG 3 h at 37 °C, purified) MSYCRQEGKDRIIFVTKEDHETPSSAELVADDPNDPYEEHGLILPNGNINWNCPCLGGMASGPCGEQFKSAFSCFHYSTEEIKGSDCVDQFRAMQECMQKYPDLYPQEDEDEEEEREKKPAEQAEETAPIEATATKEEEGSS	binds
